Molecular target: Kringle 3 domain of human plasminogen (K3) with a C-terminal hexa-histidine tag, made in P. pastoris (human) (UniProt P00747)

- increase in mass by MALDI-TOF mass spectrometry of the protein and of its released N-glycans: 325 Da
Substance: beta 1,4-galactosyltransferase from bovine milk (from UniProt P08037) (enzyme)

— patent US8932825B2
